Reference: patent US12540161B2, “Linkers” (BicycleTx Limited, priority 2020, dated 2026)

Columns and labels:
in vitro [1] = details: rat, plasma, pH 7.4
Description: (§1) Pooled frozen plasma was thawed in a water bath at 37° C. Plasma was centrifuged at 4000 rpm for 5 min and the clots were removed if any. The pH will be adjusted to 7.4±0.1 if required. 1 mM stock solution was prepared with DMSO. Propantheline (positive control) was prepared by making a 100 μM working solution by diluting 5 μL of the stock solution (10 mM) with 495 μL ultra pure water. 100 μM working solutions of test compounds were made up by diluting 10 μL of the stock solution (1 mM) with 90 μL DMSO. 98 μL of blank plasma was spiked with 2 μL of dosing solution (100 μM) to achieve 2 μM of the final concentration in duplicate and samples were incubated at 37° C. in a water bath. At each time point (0, 1, 2, 4, 6 and 24 hr), 400 μL of 200 ng/mL tolbutamide and labetalol in 100% MeOH was added and mixed thoroughly to precipitate proteins. Sample plates were centrifuged at 4,000 rpm for 15 min. An aliquot of supernatant (150 μL) was transferred from each well before submitting for LC-MS/MS analysis.
(§2) The appointed incubation time points are T0 (0 hr), Tn (n=0, 1, 2, 4, 6, 24 hr). The half-life (T½) was calculated from a log linear plot of concentration versus time.
(§3) When the % remaining value at the maximal incubation time, which was 24 hr in this study, was higher than 75%, it is considered to be within the acceptable experimental variation.

in vitro [2] = details: mouse, plasma
Cathepsin B = Cathepsin B (Homo sapiens, UniProt P07858); assay: Cathepsin B (CatB) cleavage assay; format: biochemical; details: BTCs; for half-life at 40 μM: read-out: CatB t1/2 (converted)
Description: 15 μL of test compound solution (2 mM in DMSO) was added to the incubation plate in duplicate. 30 μL of Cathepsin B stock solution (16 μM) was pre-activated with 1500 μL activation buffer for 10 min at room temperature. The Cathepsin B solution was diluted in 13.17 mL water, then 735 μL activatived enzyme mixture was added to the incubation plate. The mixture was incubated at 37° C. in a waterbath. […] The samples were mixed and centrifuged at 4000 rpm for 20 min. 50 μL of supernatant was taken into a new plate containing 150 μL ultra-pure water and the samples mixed thoroughly before submitting to LC-MS/MS analysis.

in vitro [3] = details: human, plasma, pH 7.4
Description: as §1, §2, §3

[4] = Plasma stability analysis, mouse plasma; details: plasma, BTCs
Description: Pooled frozen plasma was thawed in a water bath at 37° C. Plasma was centrifuged at 4000 rpm for 5 min and the clots were removed if any. The pH will be adjusted to 7.4±0.1 if required. 1 mM stock solution was prepared with DMSO. Propantheline (positive control) was prepared by making a 100 μM working solution by diluting 5 μL of the stock solution (10 mM) with 495 μL ultra pure water. 100 μM working solutions of test compounds were made up by diluting 10 μL of the stock solution (1 mM) with 90 μL DMSO. 98 μL of blank plasma was spiked with 2 μL of dosing solution (100 μM) to achieve 2 μM of the final concentration in duplicate and samples were incubated at 37° C. in a water bath. […] An aliquot of supernatant (150 μL) was transferred from each well before submitting for LC-MS/MS analysis.
The % remaining test compound after incubation in plasma was calculated using following equation: Remaining=100×(PAR at appointed incubation time/PAR at T0 time)
where PAR is the peak area ratio of analyte versus internal standard (IS).
The half-life (T½) was calculated from a log linear plot of concentration versus time.

in vivo = details: male, CD-1, mouse, plasma, intravenous
Description: Male CD-1 mice were dosed with each Bicycle Conjugate formulated in 25 mM histidine HCl, 10% sucrose pH 7 via tail vein injection. Serial bleeding (about 80 μL blood/time point) was performed via submadibular or saphenous vein at each time point. All blood samples were immediately transferred into prechilled microcentrifuge tubes containing 2 μL K2-EDTA (0.5M) as anti-coagulant and placed on wet ice. Blood samples were immediately processed for plasma by centrifugation at approximately 4° C., 3000 g. The precipitant including internal standard (350 μL) was immediately added into the 35 μL plasma sample, mixed well and centrifuged at 3220 g, 4° C. for 15 minutes. The supernatant was transferred into pre-labeled polypropylene microcentrifuge tubes, and then quick-frozen over dry ice. The samples were stored at 70° C. or below as needed until analysis. Supernatant samples were mixed with 50 μL water, vortexed well and centrifuged at 3220 g, 4° C. for 15 minutes. A sample of the supernatant was injected for LC-MS/MS analysis using an Acquity UPLC with AB Sciex 6500+ Triple Quad MS in positive ion mode to determine the concentrations of Bicycle Conjugate and released payload. Plasma concentration versus time data were analyzed by non-compartmental approaches using the Phoenix WinNonlin 6.3 software program. C0, Cl, Vdss, T1/2, AUC(0-inf), MRT(0-last), MRT(0-inf) nd graphs of plasma concentration versus time profile were reported.

in vitro [5] = details: human, plasma
in vitro [6] = details: rat, plasma, Plasma protein binding (% Unbound) Rat
in vitro [7] = details: cynomolgus monkey, plasma
[8] = pH 7.4, Mouse plasma t1/2 (EDTA), EDTA anticoagulant
[9] = pH 7.4, Mouse plasma t1/2 (Herparin), heparin anticoagulant

Structure (SMILES)	half-life at 2 μM (in vitro [1]) [days]	fraction unbound (in vitro [2])	% Parent remaining after incubation with CatB, 0 h (Cathepsin B) [%]	% Parent remaining after incubation with CatB, 1 h (Cathepsin B) [%]	% Parent remaining after incubation with CatB, 2 h (Cathepsin B) [%]	% Parent remaining after incubation with CatB, 4 h (Cathepsin B) [%]	% Parent remaining after incubation with CatB, 6 h (Cathepsin B) [%]	% Parent remaining after incubation with CatB, 24 h (Cathepsin B) [%]	half-life at 40 μM (Cathepsin B) [min]	half-life at 2 μM (in vitro [3]) [days]	half-life at 2 μM [4, 8] [days]	half-life at 2 μM [4, 9] [days]	C0 (in vivo) [ng/mL]	Vd (in vivo) [L/kg]	clearance (in vivo) [mL/min/kg]	half-life (in vivo) [min]	fraction unbound (in vitro [5])	fraction unbound (in vitro [6])	fraction unbound (in vitro [7])	half-life at 2 μM ([4]; pH 7.4, Mouse plasma t1/2 expt 2 (EDTA), EDTA anticoagulant, experiment 2) [days]
CC[C@H](C)[C@@H]([C@@H](CC(=O)N1CCC[C@H]1[C@H](OC)[C@@H](C)C(=O)N[C@H](C)[C@@H](O)c1ccccc1)OC)N(C)C(=O)[C@@H](NC(=O)[C@H](C(C)C)N(C)C(=O)OCc1ccc(NC(=O)[C@H](CCCNC(N)=O)NC(=O)[C@@H](NC(=O)[C@H](CCC(=O)O)NC(=O)Cn2cc(CCC(=O)NCCC(=O)N(C)CC(=O)N(C)CC(=O)N(C)CC(=O)N(C)CC(=O)N(C)CC(=O)N(C)CC(=O)N(C)CC(=O)N(C)CC(=O)N(C)CC(=O)N(C)CC(=O)N[C@@H](C)C(=O)N[C@H]3CN(C)Cc4cc5cc(c4)CN(C)C[C@@H](C(N)=O)NC(=O)[C@H](C(C)(C)C)NC(=O)[C@H](CC(=O)O)NC(=O)[C@H](Cc4ccc(O)cc4)NC(=O)[C@H](Cc4ccccc4)NC(=O)[C@H](CC(=O)O)NC(=O)[C@H](CCC(=O)O)NC(=O)[C@H](CSC5)NC(=O)[C@@H](C)NC(=O)[C@H](Cc4cccc5ccccc45)NC(=O)[C@H](CCC(=O)O)NC(=O)[C@H](CC(N)=O)NC(=O)[C@@H](C)NC3=O)nn2)C(C)C)cc1)C(C)C [BCY10980, MMAE-PAB-(Cit-Val-Glu)-BCY3900]	> 2.41	0.187	100	0	0	0	0	0	< 12	1.67	> 2.41	> 2.41	40200	0.2	4.8	38.4	–	–	–	–
CC[C@H](C)[C@@H]([C@@H](CC(=O)N1CCC[C@H]1[C@H](OC)[C@@H](C)C(=O)N[C@H](C)[C@@H](O)c1ccccc1)OC)N(C)C(=O)[C@@H](NC(=O)[C@H](C(C)C)N(C)C(=O)OCc1ccc(NC(=O)[C@H](CCN)NC(=O)[C@@H](NC(=O)[C@H](CCC(=O)O)NC(=O)Cn2cc(CCC(=O)NCCC(=O)N(C)CC(=O)N(C)CC(=O)N(C)CC(=O)N(C)CC(=O)N(C)CC(=O)N(C)CC(=O)N(C)CC(=O)N(C)CC(=O)N(C)CC(=O)N(C)CC(=O)N[C@@H](C)C(=O)N[C@H]3CN(C)Cc4cc5cc(c4)CN(C)C[C@@H](C(N)=O)NC(=O)[C@H](C(C)(C)C)NC(=O)[C@H](CC(=O)O)NC(=O)[C@H](Cc4ccc(O)cc4)NC(=O)[C@H](Cc4ccccc4)NC(=O)[C@H](CC(=O)O)NC(=O)[C@H](CCC(=O)O)NC(=O)[C@H](CSC5)NC(=O)[C@@H](C)NC(=O)[C@H](Cc4cccc5ccccc45)NC(=O)[C@H](CCC(=O)O)NC(=O)[C@H](CC(N)=O)NC(=O)[C@@H](C)NC3=O)nn2)C(C)C)cc1)C(C)C [BCY10981, MMAE-PAB-(Dab-Val-Glu)-BCY3900]	> 2.41	0.288	100	0	0	0	0	0	< 12	3.08	> 2.41	> 2.41	30700	0.15	3.9	36	0.653	0.417	0.459	–
CC[C@H](C)[C@@H]([C@@H](CC(=O)N1CCC[C@H]1[C@H](OC)[C@@H](C)C(=O)N[C@H](C)[C@@H](O)c1ccccc1)OC)N(C)C(=O)[C@@H](NC(=O)[C@H](C(C)C)N(C)C(=O)OCc1ccc(NC(=O)[C@H](CCN)NC(=O)[C@H](Cc2cccc3ccccc23)NC(=O)[C@H](CCC(=O)O)NC(=O)Cn2cc(CCC(=O)NCCC(=O)N(C)CC(=O)N(C)CC(=O)N(C)CC(=O)N(C)CC(=O)N(C)CC(=O)N(C)CC(=O)N(C)CC(=O)N(C)CC(=O)N(C)CC(=O)N(C)CC(=O)N[C@@H](C)C(=O)N[C@H]3CN(C)Cc4cc5cc(c4)CN(C)C[C@@H](C(N)=O)NC(=O)[C@H](C(C)(C)C)NC(=O)[C@H](CC(=O)O)NC(=O)[C@H](Cc4ccc(O)cc4)NC(=O)[C@H](Cc4ccccc4)NC(=O)[C@H](CC(=O)O)NC(=O)[C@H](CCC(=O)O)NC(=O)[C@H](CSC5)NC(=O)[C@@H](C)NC(=O)[C@H](Cc4cccc5ccccc45)NC(=O)[C@H](CCC(=O)O)NC(=O)[C@H](CC(N)=O)NC(=O)[C@@H](C)NC3=O)nn2)cc1)C(C)C [BCY10985, MMAE-PAB-(Dab-1Nal-Glu)-BCY3900]	> 2.41	0.048	100	103.62	94.8	107	92.2	86.82	> 3470	> 2.41	> 2.41	> 2.41	26400	0.18	1	149	0.234	–	–	–
CC[C@H](C)[C@@H]([C@@H](CC(=O)N1CCC[C@H]1[C@H](OC)[C@@H](C)C(=O)N[C@H](C)[C@@H](O)c1ccccc1)OC)N(C)C(=O)[C@@H](NC(=O)[C@H](C(C)C)N(C)C(=O)OCc1ccc(NC(=O)[C@H](CCN)NC(=O)[C@H](Cc2ccc3ccccc3c2)NC(=O)[C@H](CCC(=O)O)NC(=O)Cn2cc(CCC(=O)NCCC(=O)N(C)CC(=O)N(C)CC(=O)N(C)CC(=O)N(C)CC(=O)N(C)CC(=O)N(C)CC(=O)N(C)CC(=O)N(C)CC(=O)N(C)CC(=O)N(C)CC(=O)N[C@@H](C)C(=O)N[C@H]3CN(C)Cc4cc5cc(c4)CN(C)C[C@@H](C(N)=O)NC(=O)[C@H](C(C)(C)C)NC(=O)[C@H](CC(=O)O)NC(=O)[C@H](Cc4ccc(O)cc4)NC(=O)[C@H](Cc4ccccc4)NC(=O)[C@H](CC(=O)O)NC(=O)[C@H](CCC(=O)O)NC(=O)[C@H](CSC5)NC(=O)[C@@H](C)NC(=O)[C@H](Cc4cccc5ccccc45)NC(=O)[C@H](CCC(=O)O)NC(=O)[C@H](CC(N)=O)NC(=O)[C@@H](C)NC3=O)nn2)cc1)C(C)C [BCY10986, MMAE-PAB-(Dab-2Nal-Glu)-BCY3900]	–	0.071	100	9.7346	0	0	0	0	18	–	2.09	–	–	–	–	–	–	0.115	–	–
CC[C@H](C)[C@@H]([C@@H](CC(=O)N1CCC[C@H]1[C@H](OC)[C@@H](C)C(=O)N[C@H](C)[C@@H](O)c1ccccc1)OC)N(C)C(=O)[C@@H](NC(=O)[C@H](C(C)C)N(C)C(=O)OCc1ccc(NC(=O)[C@H](CCN)NC(=O)[C@@H](NC(=O)Cn2cc(CCC(=O)NCCC(=O)N(C)CC(=O)N(C)CC(=O)N(C)CC(=O)N(C)CC(=O)N(C)CC(=O)N(C)CC(=O)N(C)CC(=O)N(C)CC(=O)N(C)CC(=O)N(C)CC(=O)N[C@@H](C)C(=O)N[C@H]3CN(C)Cc4cc5cc(c4)CN(C)C[C@@H](C(N)=O)NC(=O)[C@H](C(C)(C)C)NC(=O)[C@H](CC(=O)O)NC(=O)[C@H](Cc4ccc(O)cc4)NC(=O)[C@H](Cc4ccccc4)NC(=O)[C@H](CC(=O)O)NC(=O)[C@H](CCC(=O)O)NC(=O)[C@H](CSC5)NC(=O)[C@@H](C)NC(=O)[C@H](Cc4cccc5ccccc45)NC(=O)[C@H](CCC(=O)O)NC(=O)[C@H](CC(N)=O)NC(=O)[C@@H](C)NC3=O)nn2)C(C)C)cc1)C(C)C [BCY10989, MMAE-PAB-(Dab-Val)-BCY3900]	–	–	100	89.4	60.7	40.4	23.2	12.8	168	–	–	–	–	–	–	–	–	–	–	1.28
